Target: CDTb D623A + D734A Ca^2+-binding double mutant, active form (Clostridioides difficile)
Assay: cryo-EM structure

“CDTb D623A + D734A Ca^2+-binding double mutant, active form (natural protein)” was tested, and the stoichiometry N was 7.
